In patent publication US20240352110A1:

What was measured:
[1] = target: Rf IgM contained in native samples from patients with elevated Rf levels; test: Elecsys µ-capture (anti-IgM-Ru detection); native sample RF_3_9, Rf 439 IU/mL
[2] = target: Rf IgM contained in native samples from patients with elevated Rf levels; test: Elecsys µ-capture (anti-IgM-Ru detection); native sample RF_3_8, Rf 402 IU/mL
[3] = target: Rf IgM contained in native samples from patients with elevated Rf levels; test: Elecsys µ-capture (anti-IgM-Ru detection); native sample RF-3-11, Rf 383 IU/mL
[4] = target: Rf IgM contained in native samples from patients with elevated Rf levels; test: Elecsys µ-capture (anti-IgM-Ru detection); native sample RF_3_12, Rf 457 IU/mL
[5] = target: Rf IgM contained in native samples from patients with elevated Rf levels; test: Elecsys µ-capture (anti-IgM-Ru detection); native sample RF_3_3, Rf 394 IU/mL
[6] = target: Rf IgM contained in native samples from patients with elevated Rf levels; test: Elecsys µ-capture (anti-IgM-Ru detection); native sample RF_3_7, Rf 318 IU/mL
[7] = target: Rf IgM contained in native samples from patients with elevated Rf levels; test: Elecsys µ-capture (anti-IgM-Ru detection); native sample E2, Rf 423 IU/mL
[8] = target: Rf IgM contained in native samples from patients with elevated Rf levels; test: Elecsys µ-capture (anti-IgM-Ru detection); native sample RF_3_10, Rf 322 IU/mL
[9] = target: Rf IgM contained in native samples from patients with elevated Rf levels; test: Elecsys µ-capture (anti-IgM-Ru detection); native sample RF_3_5, Rf 402 IU/mL
[10] = target: Rf IgM contained in native samples from patients with elevated Rf levels; test: Elecsys µ-capture (anti-IgM-Ru detection); native sample RF-3-4, Rf 321 IU/mL
[11] = target: Rf IgM contained in native samples from patients with elevated Rf levels; test: Elecsys µ-capture (anti-IgM-Ru detection); native sample RF_2_32, Rf 655 IU/mL
[12] = target: Rf IgM contained in native samples from patients with elevated Rf levels; test: Elecsys µ-capture (anti-IgM-Ru detection); native sample D8, Rf 572 IU/mL
[13] = target: Rf IgM contained in native samples from patients with elevated Rf levels; test: Elecsys µ-capture (anti-IgM-Ru detection); native sample E8, Rf 339 IU/mL
[14] = target: Rf IgM contained in native samples from patients with elevated Rf levels; test: Elecsys µ-capture (anti-IgM-Ru detection); native sample RF_3_6, Rf 371 IU/mL
[15] = target: Rf IgM contained in native samples from patients with elevated Rf levels; test: Elecsys µ-capture (anti-IgM-Ru detection); native sample RF_3_13, Rf 1492 IU/mL
[16] = target: Rf IgM contained in native samples from patients with elevated Rf levels; test: Elecsys µ-capture (anti-IgM-Ru detection); native sample D4, Rf 566 IU/mL
[17] = target: Rf IgM contained in native samples from patients with elevated Rf levels; test: Elecsys µ-capture (anti-IgM-Ru detection); native sample RF_2_33, Rf 377 IU/mL
[18] = target: Rf IgM contained in native samples from patients with elevated Rf levels; test: Elecsys µ-capture (anti-IgM-Ru detection); native sample B6, Rf 386 IU/mL
[19] = target: Rf IgM contained in native samples from patients with elevated Rf levels; test: Elecsys µ-capture (anti-IgM-Ru detection); native sample C9, Rf 640 IU/mL
[20] = target: Rf IgM contained in native samples from patients with elevated Rf levels; test: Elecsys µ-capture (anti-IgM-Ru detection); native sample A5, Rf 466 IU/mL
[21] = target: Rf IgM contained in native samples from patients with elevated Rf levels; test: Elecsys µ-capture (anti-IgM-Ru detection); native sample RF-3-2, Rf 401 IU/mL
[22] = target: Rf IgM contained in native samples from patients with elevated Rf levels; test: Elecsys µ-capture (anti-IgM-Ru detection); native sample RF_2_31, Rf 457 IU/mL
[23] = target: Rf IgM contained in native samples from patients with elevated Rf levels; test: Elecsys µ-capture (anti-IgM-Ru detection); native sample RF_3_1, Rf 430 IU/mL

B1: 21F12 F(ab′)2 fragment (protein)
VH: EVQLQQSGPELLKPGASVKISCKASGFTFTDYTMHWMKQSHGKSLEWIGGINPNSGGTIYNEKFKDKATLTVDKSSRTAYMELRSLTSEDSAVYFCTRGVYDGYFYWGQGTLVTVSA
VL: DVVMTQTPLSLPVSLGDQASISCRSSQSLVYSNGNTFLHWYLQKPGQSPKLLIYKVSTRFSGVPDRFSGSGSGSDFTLKISRVEAEDLGIYFCSQTTHAPFTFGSGTKLAIR
B1 was tested. Which Elecsys counts [1] did it give?
The Elecsys counts was 14500 counts.

What about the Elecsys counts [2] of the same binder?
Its Elecsys counts is 6820 counts.

What about the Elecsys counts [3] of the same binder?
Its Elecsys counts is 69300 counts.

What about the Elecsys counts [4] of the same binder?
The Elecsys counts was 5670 counts.

What about the Elecsys counts [5] of the same binder?
Its Elecsys counts is 5850 counts.

And the Elecsys counts [6]?
The Elecsys counts was 7580 counts.

What about the Elecsys counts [7] of the same binder?
The Elecsys counts was 102000 counts.

And the Elecsys counts [8]?
Its Elecsys counts is 8620 counts.

And the Elecsys counts [9]?
Its Elecsys counts is 10400 counts.

What about the Elecsys counts [10] of the same binder?
Its Elecsys counts is 99600 counts.

What about the Elecsys counts [11] of the same binder?
Its Elecsys counts is 4220 counts.

And the Elecsys counts [12]?
Its Elecsys counts is 242000 counts.

And the Elecsys counts [13]?
Its Elecsys counts is 118000 counts.

What about the Elecsys counts [14] of the same binder?
Its Elecsys counts is 24500 counts.

And the Elecsys counts [15]?
The Elecsys counts was 4740 counts.

And the Elecsys counts [16]?
The Elecsys counts was 13300 counts.

What about the Elecsys counts [17] of the same binder?
Its Elecsys counts is 9430 counts.

And the Elecsys counts [18]?
The Elecsys counts was 103000 counts.

And the Elecsys counts [19]?
Its Elecsys counts is 8240 counts.

And the Elecsys counts [20]?
The Elecsys counts was 11600 counts.

And the Elecsys counts [21]?
The Elecsys counts was 282000 counts.

What about the Elecsys counts [22] of the same binder?
The Elecsys counts was 27300 counts.

And the Elecsys counts [23]?
The Elecsys counts was 19700 counts.
